Experimental findings from US20160184446A1, “METHOD OF INHIBITING BODY CAVITY FLUID ACCUMULATION” (Toray Industries, Inc., priority 2012, published 2016) are described below.

In the assay the test system is gastric cancer peritoneal metastasis mouse models (GCIY-EGFP cells). Description: Ascites accumulation in gastric cancer peritoneal metastasis mouse models, systemic (subcutaneous) administration. Conditions: subcutaneous (systemic), 5,000 U/mouse/dose, twice a week for 4 weeks; ascites collected 2 weeks after final administration; vs PBS control. The class given is in vivo. The procedure:
Gastric cancer peritoneal metastasis mouse models were produced by transplanting human gastric cancer cells, GCIY-EGFP cells, intraperitoneally into male KSN nude mice in the same manner as in Example 2.
Administration was initiated on the day after transplantation and performed twice a week for 4 weeks. Phosphate buffer (PBS) was administered to the control group in the same manner. Ascites was collected from the gastric cancer peritoneal metastasis mouse models under anesthesia 2 weeks after the final administration and the liquid volume was measured.
The vertical axis represents the amount of ascites (median; mL).

B1: PEG-mIFN-β: one PEG molecule with a molecular weight of 42,000 covalently bound to recombinant mouse interferon-β (conjugate, UniProt P01575 22-182, looked up)
Interferon beta: INYKQLQLQERTNIRKCQELLEQLNGKINLTYRADFKIPMEMTEKMQKSYTAFAIQEMLQNVFLVFRNNFSSTGWNETIVVRLLDELHQQTVFLKTVLEEKQEERLTWEMSSTALHLKSYYWRVQRYLKLMKYNSYAWMVVRAEIFRNFLIIRRLTRNFQN
modifications: 42 kDa PEG
As to B1, the “accumulation of ascites (amount of ascites)” value is recorded as “remarkably inhibited”.
